Experimental data from patent US20160200799A1.
Residue numbers refer to the chain shown, from its start.

B1: Group 37 representative clone F083-311, Fab-PP-type antibody (Fab, V domains shown)
VH: QVQLVQSGSEVKKPGSSVKVSCKASGGIFRTNAISYVRQAPGQGLEWMGGITAIFGTPNYAQKFQGRVTIIADESTSTVYMELGSLTSEDTAVYYCATSGTYYVSYFDSWGQGTLVTVSS
VL: DIVMTQSPGTLTLSPGERATLSCRASQSLYSSHLAWYQQKPGQPPRLLIYGASTRAPGTPDRFSGSGSGTDFTLTITALDPEDSAVYYCQQYGSSPITFGQGTRLEIK
B2: Group 35 representative clone F082-117, Fab-PP-type antibody (Fab, V domains shown)
VH: QVQLVQSGSEVKKPGSSVKVSCKSSGGILRRSAISWVRQAPGQGLEWMGGILAIFGTTKYAQKFQGRITITADESTNTVHMELSSLRPDDTAVYYCAGGPHYYVSYFDSWGQGTLVTVSS
VL: DIQMTQSPATLSLSPGERATLSCRASQSVRSYLAWYQQKPGQAPRLLIYDASNRATGIPARFSGSGSGTEFTLTISRLEPEDFAVYYCQQRSNWLFTFGPGTKVDFK
B3: Group 47 representative clone F083-308, Fab-PP-type antibody (Fab, V domains shown)
VH: QVQLVQSGAEVKKPGSSVKVSCKASGGIFRSHAISWVRQAPGQGLEWMGGIIAIFGTTHYAQQFQGRVTITADESTSTVYMELSTLRSEDTAVYYCARGPNYFESYFDNWGQGTLVTVSS
VL: EIVLTQSPATLSLSPGERATLSCRASQTISSYLAWYQQKPGQAPRLLIYGASNRATGIPARFSGSGSGTDFTLTINSLEPEDFAVYYCQQRSSWPPITFGQGTRLEIK
B4: Group 39 representative clone F082-237, Fab-PP-type antibody (Fab, V domains shown)
VH: QVQLVQSGAEVKKPGSSVKVSCKASGGIFNKYGISWVRQAPGQGLEWMGGILAIFGTTNYAQKFQGRVTISADESSTTVYMELSSLTSEDTAVYYCARGNTYYSSYFDQWGQGTLVTVSS
VL: QSVLTQPPSVSVAPGQTATITCGGDKIGTGPVHWYQQMPGRAPVLLIYASTHRPSRIPERFSGSKSDNTATLSISGVGVGDEADYYCQMWDSSSVHPIVFGGGTKLTVLS
B5: Group 54 representative clone F083-354, Fab-PP-type antibody (Fab, V domains shown)
VH: B4 VH with A9S, K31S, S71T, E74D, T77K, N100S
VL: DIQMTQSPSSLSASVGDRVTITCRASQGIRNSLAWYQQKPGQVPKLLIYSATTLRSGVPYRFSGSGSGTDFTLTISGLQPEDVGTYFCHRYDSAPLTFGGGTRVALK
B6: Group 3 representative clone F081-281, Fab-PP-type antibody (Fab, V domains shown)
VH: QVQLVQSGSEVKKPGSSVKVSCSFKASGGIISKYAITWVRQAPGQGLEWMGGIIAIFGSTNYAQKFQGRLTITSDESTSTAYMELSSLTSEDTAVYYCGRGPHYYESHLDYWGQGTLVTVSS
VL: EIVLTQSPGTLSLSPGERATLSCRASQGMSSSFLAWYQQKPGQPPRLLISGASTRATGIPDRFSGSGSGTDFTLTINRLEPEDFAVYYCQQYGSSPRTFGQGTKVEIK

Experiments:
Assay in all cases: cell-based or functional assay
[1] = biological target: Influenza virus A/Brisbane/59/2007 (H1N1) (Influenza A virus A/Brisbane/59/2007 (H1N1))
[2] = biological target: Influenza virus A/Panama/2007/1999 (H3N2) (Influenza A virus A/Panama/2007/1999 (H3N2))
[3] = biological target: Influenza virus A/Suita/1/2009pdm (H1N1 2009 pandemic) (Influenza A virus A/Suita/1/2009pdm (H1N1pdm))
[4] = biological target: Influenza virus A/California/7/2009pdm (H1N1pdm) (Influenza A virus A/California/7/2009pdm (H1N1pdm))
[5] = biological target: Influenza virus A/Indonesia/5/2005/PR8-IBCDC-RG2 (H5N1) (Influenza A virus A/Indonesia/5/2005/PR8-IBCDC-RG2 (H5N1))

Row | Binder | HI activity [1] [µg/mL] | Neutralizing activity (%) at 100 µg/ml [1] [%] | Neutralizing activity (%) at 250 µg/ml [1] [%] | Neutralizing activity (%) at 100 µg/ml [2] [%] | Neutralizing activity (%) at 250 µg/ml [2] [%] | Neutralizing activity (%) at 100 µg/ml [3] [%] | Neutralizing activity (%) at 250 µg/ml [3] [%] | HI activity [4] [µg/mL] | Neutralizing activity (%) at 100 µg/ml [5] [%] | Neutralizing activity (%) at 250 µg/ml [5] [%]
1 | B1 | > 160 | 100 | 100 | -8.9 | 5.5 | 93 | 100 | > 160 | 90 | 97.1
2 | B2 | > 160 | 100 | 100 | 3.4 | -4.8 | 100 | 100 | > 160 | 94.1 | 95.9
3 | B3 | > 160 | 100 | 100 | 1.4 | -6.8 | 97.7 | 100 | > 160 | 29.4 | 49.4
4 | B4 | > 160 | 48.7 | 64.5 | -2.7 | 15.8 | 95.3 | 100 | > 160 | 31.2 | 41.2
5 | B5 | > 160 | 96.1 | 100 | -0.7 | -11 | 100 | 94.2 | > 160 | 66.4 | 80.7
6 | B6 | > 160 | 98 | 100 | -11.6 | -8.9 | 100 | 100 | > 160 | 81.8 | 85.9
